Measured values: paper PMC7702011 (2020)

Target: Recombinant NPTN polypeptide (UniProt Q9Y639 29-398)
Assay: MST

Recombinant NPTN polypeptide, sequence (Q9Y639 29-339): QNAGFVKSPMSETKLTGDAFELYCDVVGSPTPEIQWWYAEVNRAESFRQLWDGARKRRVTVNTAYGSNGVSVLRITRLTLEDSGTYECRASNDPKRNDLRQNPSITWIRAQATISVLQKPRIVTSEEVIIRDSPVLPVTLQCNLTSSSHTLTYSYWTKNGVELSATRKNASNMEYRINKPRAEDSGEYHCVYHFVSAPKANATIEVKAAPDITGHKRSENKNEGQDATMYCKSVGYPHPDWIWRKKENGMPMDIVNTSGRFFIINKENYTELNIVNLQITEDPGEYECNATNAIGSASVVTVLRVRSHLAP

B1: Recombinant MANF polypeptide, labeled with Alexa 647 (ligand)
chain: LRPGDCEVCISYLGRFYQDLKDRDVTFSPATIENELIKFCREARGKENRLCYYIGATDDAATKIINEVSKPLAHHIPVEKICEKLKKKDSQICELKYDKQIDLSTVDLKKLRVKELKKILDDWGETCKGCAEKSDYIRKINELMPKYAPKAASARTDL
modifications: fluorescently labeled with Alexa 647
B1 was tested, and the Kd was 104 nM.
